Assay results: patent US20240141072A1 (published 2024)

T1: biotinylated human DLL3 protein expressed as a human IgG1 fusion protein (human, UniProt Q9NYJ7 27-492, limits assumed, biotinylated)
T1 sequence: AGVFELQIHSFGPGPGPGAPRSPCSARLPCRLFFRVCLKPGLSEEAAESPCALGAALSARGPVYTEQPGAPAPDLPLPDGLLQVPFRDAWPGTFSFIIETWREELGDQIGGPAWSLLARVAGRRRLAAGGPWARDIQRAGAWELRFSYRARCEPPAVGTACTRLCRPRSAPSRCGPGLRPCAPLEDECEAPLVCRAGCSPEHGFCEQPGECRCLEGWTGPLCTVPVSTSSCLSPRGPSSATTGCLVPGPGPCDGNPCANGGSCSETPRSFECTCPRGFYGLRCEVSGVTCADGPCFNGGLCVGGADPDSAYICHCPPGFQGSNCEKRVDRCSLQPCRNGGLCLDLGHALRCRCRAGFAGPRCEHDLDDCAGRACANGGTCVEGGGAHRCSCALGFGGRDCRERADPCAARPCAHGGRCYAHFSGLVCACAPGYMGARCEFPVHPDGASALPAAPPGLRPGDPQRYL


molecular target: T1, biotinylated human DLL3 protein …; experiment: Octet BLI, single 50 nM
Summary of the method: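 Read-out is binding affinity to human DLL3. Conditioned medium containing a known amount of each trispecific protein was run against the immobilised biotinylated DLL3 fusion.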

Kd | Binder
13 nM | 3F03 anti-DLL3 trispecific protein (other, not shown: linker 1808, anti-albumin sdAb, linker 1808, anti-CD3 fragment, His6 1819) EVQLVESGGGLVQPGGSLTLSCAASGSSVSFLSMAWYRQAPGKKRELVAGISADGSTDYIDSVKGRFTISRDNAKNSVYLQMNSLRAEDTAVYYCYAYRWRTRYTYWGQGTLVTVSS
9.2 nM | 3A04 anti-DLL3 trispecific protein (other, not shown: linker 1808, anti-albumin sdAb, linker 1808, anti-CD3 fragment, His6 1819) EVQLVESGGGLVQPGGSLTLSCAASGSQVSFLSMAWYRQAPGKKRELVAGISRDGSTDYIDSVKGRFTISRDNAKNSVYLQMNSLRAEDTAVYYCYAYRWTTRYIYWGQGTLVTVSS
16 nM | 3A01 anti-DLL3 trispecific protein (other, not shown: linker 1808, anti-albumin sdAb, linker 1808, anti-CD3 fragment, His6 1819) EVQLVESGGGLVQPGGSLTLSCAASGSSVKFLSMAWYRQAPGKKRELVAGISADGSTDYIDSVKGRFTISRDNAKNSVYLQMNSLRAEDTAVYYCYAYRWTRRYTYWGQGTLVTVSS
15 nM | 3A05 anti-DLL3 trispecific protein (other, not shown: linker 1808, anti-albumin sdAb, linker 1808, anti-CD3 fragment, His6 1819) EVQLVESGGGLVQPGGSLTLSCAASGSSVSFLSMAWYRQAPGKKRELVAGISEAGSTDYIDSVKGRFTISRDNAKNSVYLQMNSLRAEDTAVYYCYAYRWRTRYTYWGQGTLVTVSS
12 nM | 3A03 anti-DLL3 trispecific protein (other, not shown: linker 1808, anti-albumin sdAb, linker 1808, anti-CD3 fragment, His6 1819) EVQLVESGGGLVQPGGSLTLSCAASGSRVSFLSMAWYRQAPGKKRELVAGISRDGSTDYIDSVKGRFTISRDNAKNSVYLQMNSLRAEDTAVYYCYAYRWTTRRTYWGQGTLVTVSS
8.2 nM | 2D09 anti-DLL3 trispecific protein (other, not shown: linker 1808, anti-albumin sdAb, linker 1808, anti-CD3 fragment, His6 1819) EVQLVESGGGLVQPGGSLTLSCVASGTTSSINAMGWYRRAPGKQRELAAGISSDGSKVYNDSVKGRFTISRDNAKNSVYLQMNSLRAEDTAVYYCYYFRTVRGSSMRYWGQGTLVTVSS
5.4 nM | 2D011 anti-DLL3 trispecific protein (other, not shown: linker 1808, anti-albumin sdAb, linker 1808, anti-CD3 fragment, His6 1819) EVQLVESGGGLVQPGGSLTLSCVASGTTSSINAMGWYRRAPGKQRELVAGISSDGSKVYADSVKGRFTISRDNAKNSVYLQMNSLRAEDTAVYYCYYFRTVWGSSMRYWGQGTLVTVSS
10 nM | 2F06 anti-DLL3 trispecific protein (other, not shown: linker 1808, anti-albumin sdAb, linker 1808, anti-CD3 fragment, His6 1819) EVQLVESGGGLVQPGGSLTLSCVASGSTSSINAYGWYRRAPGKQRELVAGISSDGSAVYADSVKGRFTISRDNAKNSVYLQMNSLRAEDTAVYYCYYFRTHSGSSMRYWGQGTLVTVSS
6.5 nM | 2F09 anti-DLL3 trispecific protein (other, not shown: linker 1808, anti-albumin sdAb, linker 1808, anti-CD3 fragment, His6 1819) EVQLVESGGGLVQPGGSLTLSCVASGSTSSINAMAWYRRAPGKQRELVAGISSDGSKLYADSVKGRFTISRDNAKNSVYLQMNSLRAEDTAVYYCYYFRTVSGSSMRYWGQGTLVTVSS
17 nM | 2E08 anti-DLL3 trispecific protein (other, not shown: linker 1808, anti-albumin sdAb, linker 1808, anti-CD3 fragment, His6 1819) EVQLVESGGGLVQPGGSLTLSCVASGSRSSINAMGWYRRAPGKQRELVAGISADGSKVYADSVKGRFTISRDNAKNSVYLQMNSLRAEDTAVYYCYYFRTQSGSSMRYWGQGTLVTVSS
8 nM | 2F07 anti-DLL3 trispecific protein (other, not shown: linker 1808, anti-albumin sdAb, linker 1808, anti-CD3 fragment, His6 1819) EVQLVESGGGLVQPGGSLTLSCVASGSTSSINAVGWYRRAPGKQRELVAGISSDGSSVYADSVKGRFTISRDNAKNSVYLQMNSLRAEDTAVYYCYYFRTVSTSSMRYWGQGTLVTVSS
7.3 nM | 2D010 anti-DLL3 trispecific protein (other, not shown: linker 1808, anti-albumin sdAb, linker 1808, anti-CD3 fragment, His6 1819) EVQLVESGGGLVQPGGSLTLSCVASGSTSSINAMGWYRRAPGKQRELVAGISSDGSKVYADSVKGRFTISRDNAKNSVYLQMNSLRAEDTAVYYCYYFRTKSGSSMRYWGQGTLVTVSS
11 nM | 2G04 anti-DLL3 trispecific protein (other, not shown: linker 1808, anti-albumin sdAb, linker 1808, anti-CD3 fragment, His6 1819) EVQLVESGGGLVQPGGSLTLSCVASGSTSSINAMGWYRRAPGKQRELVAGISSDGSLVYADSVKGRFTISRDNAKNSVYLQMNSLRAEDTAVYYCYYFRILSGSSMRYWGQGTLVTVSS
6.5 nM | 2G07 anti-DLL3 trispecific protein (other, not shown: linker 1808, anti-albumin sdAb, linker 1808, anti-CD3 fragment, His6 1819) EVQLVESGGGLVQPGGSLTLSCVASGSTSSINAMAWYRRAPGKQRELVAGISSDGSKVYADSVKGRFTISRDNAKNSVYLQMNSLRAEDTAVYYCYYFRTVQGSSMRYWGQGTLVTVSS
7.9 nM | 2H06 anti-DLL3 trispecific protein (other, not shown: linker 1808, anti-albumin sdAb, linker 1808, anti-CD3 fragment, His6 1819) EVQLVESGGGLVQPGGSLTLSCVASGSTSTINAMGWYRRAPGKQRELVAGISSDGSKVYADSVKGRFTISRDNAKNSVYLQMNSLRAEDTAVYYCYYFRTASGSSMRYWGQGTLVTVSS
11 nM | 2E06 anti-DLL3 trispecific protein (other, not shown: linker 1808, anti-albumin sdAb, linker 1808, anti-CD3 fragment, His6 1819) EVQLVESGGGLVQPGGSLTLSCVASGSTSSINAMGWYRRAPGKQRELVAGISSDGSKVYASSVKGRFTISRDNAKNSVYLQMNSLRAEDTAVYYCYYFRTVRGSSMRYWGQGTLVTVSS

Kd | Binder
4.1 nM | 2G08 anti-DLL3 trispecific protein (other, not shown: linker 1808, anti-albumin sdAb, linker 1808, anti-CD3 fragment, His6 1819) EVQLVESGGGLVQPGGSLTLSCVASGSTSYINAMGWYRRAPGKQRELVAGISSDGSKVYADSVKGRFTISRDNAKNSVYLQMNSLRAEDTAVYYCYYFRTVSGQSMGYWGQGTLVTVSS
20 nM | 2F08 anti-DLL3 trispecific protein (other, not shown: linker 1808, anti-albumin sdAb, linker 1808, anti-CD3 fragment, His6 1819) EVQLVESGGGLVQPGGSLTLSCVASGSKSSINAMGWYRRAPGKQRELPAGISSNGTKVYADSAKVRFTISRDNAKNSVYLQMNSLRAEDTAVYYCYYFRTVLGTSMRYWGQGTLVTVSS
4.9 nM | 2D012 anti-DLL3 trispecific protein (other, not shown: linker 1808, anti-albumin sdAb, linker 1808, anti-CD3 fragment, His6 1819) EVQLVESGGGLVQPGGSLTLSCVASGKTSSINAMGWYRRAPGKQRELVAGISSDGSKVYTDSVKGRFTISRDNAKNSVYLQMNSLRAEDTAVYYCYYFRTRSGSSMRYWGQGTLVTVSS
6.1 nM | 2H07 anti-DLL3 trispecific protein (other, not shown: linker 1808, anti-albumin sdAb, linker 1808, anti-CD3 fragment, His6 1819) EVQLVESGGGLVQPGGSLTLSCVASGSTSSINAVGWYRRAPGKQRELVAGISSDGSTVYADSVKGRFTISRDNAKNSVYLQMNSLRAEDTAVYYCYYFRTVSGHSMRYWGQGTLVTVSS
13 nM | 2G011 anti-DLL3 trispecific protein (other, not shown: linker 1808, anti-albumin sdAb, linker 1808, anti-CD3 fragment, His6 1819) EVQLVESGGGLVQPGGSLTLSCVASGSTSSINAMGWYRRAPGKQRELPAGISRDGSKVYADSVKGRFTISRDNAKNSVYLQMNSLRAEDTAVYYCYYFRYVSGSSMRYWGQGTLVTVSS
5.3 nM | 2H03 anti-DLL3 trispecific protein (other, not shown: linker 1808, anti-albumin sdAb, linker 1808, anti-CD3 fragment, His6 1819) EVQLVESGGGLVQPGGSLTLSCVASGSTSSINAMAWYRRAPGKQRELVAGISSDGSKVYADSVKGRFTISRDNAKNSVYLQMNSLRAEDTAVYYCYYFRQVSGSSMRYWGQGTLVTVSS
5 nM | 2H011 anti-DLL3 trispecific protein (other, not shown: linker 1808, anti-albumin sdAb, linker 1808, anti-CD3 fragment, His6 1819) EVQLVESGGGLVQPGGSLTLSCVASGSTSRINAMGWYRRAPGKQRELVAGISSDGSKVYADSVKGRFTISRDNAKNSVYLQMNSLRAEDTAVYYCYYFRRVSGSSMRYWGQGTLVTVSS
6.3 nM | 2H04 anti-DLL3 trispecific protein (other, not shown: linker 1808, anti-albumin sdAb, linker 1808, anti-CD3 fragment, His6 1819) EVQLVESGGGLVQPGGSLTLSCVASGSTSSINAMGWYRRAPGKQRELVAGISSDTSKVYADSVKGRFTISRDNAKNSVYLQMNSLRAEDTAVYYCYYFRTVSGSYMRYWGQGTLVTVSS
8 nM | 2G09 anti-DLL3 trispecific protein (other, not shown: linker 1808, anti-albumin sdAb, linker 1808, anti-CD3 fragment, His6 1819) EVQLVESGGGLVQPGGSLTLSCVASGSTSSINAMGWYRRAPGKQRELVAGVSSDGSKVYADSVKGRFTISRDNAKNSVYLQMNSLRAEDTAVYYCYYFRTVSGSSARYWGQGTLVTVSS
6.4 nM | 2H010 anti-DLL3 trispecific protein (other, not shown: linker 1808, anti-albumin sdAb, linker 1808, anti-CD3 fragment, His6 1819) EVQLVESGGGLVQPGGSLTLSCVASGSTSSINAMGWYRRAPGKQRELAAGISSDGSKLYADSVKGRFTISRDNAKNSVYLQMNSLRAEDTAVYYCYYFRTVSGSSMRYWGQGTLVTVSS
18 nM | 2H08 anti-DLL3 trispecific protein (other, not shown: linker 1808, anti-albumin sdAb, linker 1808, anti-CD3 fragment, His6 1819) EVQLVESGGGLVQPGGSLTLSCVASGSTSSINAMGWYRRAPGKQRELAAGISKDGSKVYADSAKGRFTISRDNAKNSVYLQMNSLRAEDTAVYYCYYFRTVSGSSSRYWGQGTLVTVSS
9.6 nM | 2F02 anti-DLL3 trispecific protein (other, not shown: linker 1808, anti-albumin sdAb, linker 1808, anti-CD3 fragment, His6 1819) EVQLVESGGGLVQPGGSLTLSCVASGSTSSINAVGWYRRAPGKQRELVAGISSDGSKVYAGSVKGRFTISRDNAKNSVYLQMNSLRAEDTAVYYCYYFRTVSGSYMRYWGQGTLVTVSS
5.6 nM | 2G03 anti-DLL3 trispecific protein (other, not shown: linker 1808, anti-albumin sdAb, linker 1808, anti-CD3 fragment, His6 1819) EVQLVESGGGLVQPGGSLTLSCVASGSTSSINAMGWYRRAPGKQRELVAGISSDGSLVYADSVKGRFTISRDNAKNSVYLQMNSLRAEDTAVYYCYYFRTVSGSSMRAWGQGTLVTVSS
5.9 nM | 2F03 anti-DLL3 trispecific protein (other, not shown: linker 1808, anti-albumin sdAb, linker 1808, anti-CD3 fragment, His6 1819) EVQLVESGGGLVQPGGSLTLSCVASGSTSSINAMAWYRRAPGKQRELAAGISSDNSKVYADSVKGRFTISRDNAKNSVYLQMNSLRAEDTAVYYCYYFRTVGGSSMRYWGQGTLVTVSS
8.5 nM | 2E09 anti-DLL3 trispecific protein (other, not shown: linker 1808, anti-albumin sdAb, linker 1808, anti-CD3 fragment, His6 1819) EVQLVESGGGLVQPGGSLTLSCVASGSVSSINAMGWYRRAPGKQRELVAGISSDGSKVYASSAKGRFTISRDNAKNSVYLQMNSLRAEDTAVYYCYYFRTLSGSSMRYWGQGTLVTVSS
9.2 nM | 2F01 anti-DLL3 trispecific protein (other, not shown: linker 1808, anti-albumin sdAb, linker 1808, anti-CD3 fragment, His6 1819) EVQLVESGGGLVQPGGSLTLSCVASGSTSSINAMGWYRRAPGKQRELVAGISSDGSKVYSDSVKGRFTISRDNAKNSVYLQMNSLRAEDTAVYYCYYFRLVSGSSMRYWGQGTLVTVSS
